Data on 2 substances can be found in patent US20240189442.

The subject of one data set is T1, SEQ ID NO: 51.
T1 sequence: SGRSA

For a further data set, the system named is T2, SEQ ID NO: 50.
T2 sequence: LSGRSDNH

For another data set, the system named is T3, SEQ ID NO: 54.
T3 sequence: GSGRNAQV

The next data set concerns T4, SEQ ID NO: 53.
T4 sequence: LGGSGRNAQVRLE

A further data set deals with T5, SEQ ID NO: 52.
T5 sequence: LGGSGRSANAILE

Chain of Tissue-type Plasminogen Activator (tPA) (P00750 36-562): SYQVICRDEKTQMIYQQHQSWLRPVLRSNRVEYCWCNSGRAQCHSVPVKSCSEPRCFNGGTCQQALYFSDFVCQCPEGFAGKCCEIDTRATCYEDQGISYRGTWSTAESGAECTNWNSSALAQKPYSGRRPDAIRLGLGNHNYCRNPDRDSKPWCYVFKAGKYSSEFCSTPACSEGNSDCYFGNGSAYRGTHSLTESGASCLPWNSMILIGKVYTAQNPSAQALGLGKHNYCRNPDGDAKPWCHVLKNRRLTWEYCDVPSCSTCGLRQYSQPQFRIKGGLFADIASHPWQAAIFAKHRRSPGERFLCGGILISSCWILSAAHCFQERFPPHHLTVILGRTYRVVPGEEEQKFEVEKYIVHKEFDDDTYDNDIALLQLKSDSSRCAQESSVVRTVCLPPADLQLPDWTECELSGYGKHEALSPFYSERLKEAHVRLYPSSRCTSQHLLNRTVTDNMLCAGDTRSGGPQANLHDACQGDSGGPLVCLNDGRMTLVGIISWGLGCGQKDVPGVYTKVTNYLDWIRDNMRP

For Tissue-type Plasminogen Activator (tPA), the Fold of Increase, fluorescence intensity; tPA digestion at 2.25 × 10^-2 mg/mL in the data set on SEQ ID NO: 51 came to 5.4 fold; in the data set with SEQ ID NO: 50 it was 1.1 fold; in the data set with SEQ ID NO: 54 it was 2.6 fold; with SEQ ID NO: 53 it was 1.3 fold; with SEQ ID NO: 52 it was 2.1 fold. Besides, the Fold of Increase, fluorescence intensity; tPA digestion at 7.5 × 10^-3 mg/mL in the data set on SEQ ID NO: 51 was 2.1 fold; in the data set with SEQ ID NO: 50 it was 0.63 fold; in the data set with SEQ ID NO: 54, 0.91 fold; with SEQ ID NO: 53 it was 0.73 fold; in the data set on SEQ ID NO: 52, 1.2 fold.
For “Urokinase-type Plasminogen Activator (uPA)”, the Fold of Increase, fluorescence intensity (FRET cleavage assay) in the data set on SEQ ID NO: 51 is 9.6 fold; in the data set on SEQ ID NO: 50 it was 4.9 fold; with SEQ ID NO: 54, 4.7 fold; in the data set on SEQ ID NO: 53, 3 fold; in the data set on SEQ ID NO: 52, 3.1 fold. For the same substance, the Time to Reach Plateau (hr), fluorescence intensity (FRET cleavage assay) was 1.8 h with SEQ ID NO: 51; 1.7 h in the data set with SEQ ID NO: 50; 1.4 h in the data set with SEQ ID NO: 54; 1.6 h in the data set with SEQ ID NO: 53; 1.4 h with SEQ ID NO: 52.
